Assay [1] concerns the target T1, soluble human FcRn (shFcRn) (human, UniProt P55899 24-297; P61769 21-119).
T1 construct: also called soluble hFcRn; sol hFcRn
In words: SPR 8500, hFcRn pH 7.4 (Table 11C).

In assay [2] the target is T1, soluble human FcRn (shFcRn). In words: SPR 8500, hFcRn pH 6 (Table 12B).
For assay [3], the target named is T2, human FcRn/human β2M expressed by cells (293 C11 cells) (human, UniProt P55899 24-365; P61769 21-119).
T2 construct: HEK 293 cells engineered to overexpress FcRn; Whole entries named; also called hFcRn (cells); hFcRn in THP-1 and Caco-2 cells
T2 sequence (P55899 24-365 limits assumed, chain 1 of 2): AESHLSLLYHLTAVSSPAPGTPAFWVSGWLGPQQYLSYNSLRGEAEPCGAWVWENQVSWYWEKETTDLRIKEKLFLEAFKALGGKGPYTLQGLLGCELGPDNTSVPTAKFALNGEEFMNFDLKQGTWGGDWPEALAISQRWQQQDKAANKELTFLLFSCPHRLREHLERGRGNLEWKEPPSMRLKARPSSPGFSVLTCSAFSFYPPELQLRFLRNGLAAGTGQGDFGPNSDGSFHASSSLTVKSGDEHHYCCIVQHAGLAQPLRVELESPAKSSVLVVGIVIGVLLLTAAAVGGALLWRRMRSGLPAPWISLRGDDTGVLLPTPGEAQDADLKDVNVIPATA
T2 sequence (P61769 21-119 limits assumed, chain 2 of 2): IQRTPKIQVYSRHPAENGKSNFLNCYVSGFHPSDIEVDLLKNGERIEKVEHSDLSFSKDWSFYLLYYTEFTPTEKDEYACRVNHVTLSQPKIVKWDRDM
The assay is described as follows: FACS blocking of IgG-Fc, IgG, pH 6.

In assay [4] the target is T3, soluble rat FcRn (rat, UniProt P13599 23-298; P07151 21-119, limits assumed).
T3 construct: also called sol rat FcRn
T3 sequence: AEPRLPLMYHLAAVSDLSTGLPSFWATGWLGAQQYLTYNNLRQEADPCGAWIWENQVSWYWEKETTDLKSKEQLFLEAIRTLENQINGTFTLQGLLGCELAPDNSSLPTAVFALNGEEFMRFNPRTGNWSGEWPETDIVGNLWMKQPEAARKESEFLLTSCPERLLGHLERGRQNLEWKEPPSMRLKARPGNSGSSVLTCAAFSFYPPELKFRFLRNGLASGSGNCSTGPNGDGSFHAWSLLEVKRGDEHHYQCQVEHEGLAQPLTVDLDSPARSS
T3 sequence (b2m): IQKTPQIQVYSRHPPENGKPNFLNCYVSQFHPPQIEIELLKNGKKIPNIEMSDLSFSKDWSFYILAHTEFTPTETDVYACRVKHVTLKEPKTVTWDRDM
The assay is described as follows: SPR 8500, rat FcRn pH 6 (Table 11D).

The target of assay [5] is T1, soluble human FcRn (shFcRn). In words: SPR 8500, hFcRn pH 6 (Table 11B).
Assay [6] shares this target. The assay is described as follows: SPR 8500, hFcRn pH 7.4 (Table 12C).
Assay [7] has the same target. The assay is described as follows: Biacore, pH 7.4. For orientation: SPR reads the build-up and loss of mass on a sensor chip optically.
Assay [8] addresses T2, human FcRn/human β2M expressed by cells …. The assay is described as follows: FACS (blocking), IgG, hFcRn cells, pH 6.
Assay [9] concerns the target T1, soluble human FcRn (shFcRn). The assay is described as follows: SPR 8500, IgG, pH 7.5.
Assay [10] addresses T3, soluble rat FcRn. In words: SPR 8500, IgG, pH 7.5.
The target in assay [11] is T3, soluble rat FcRn. In words: SPR 8500, rat FcRn pH 7.4 (Table 12E).
Assay [12] has as its target T1, soluble human FcRn (shFcRn). The assay is described as follows: Biacore, IgG immobilized, hFcRn flowed, pH 6.
In assay [13] the target is T4, rat FcRn/rat β2M expressed on cells (rat, UniProt P13599 23-366; P07151 21-119).
T4 construct: Cells from Neil Simister (Brandeis); also called rat FcRn (cells); rat fibroblasts expressing rat FcRn
T4 sequence: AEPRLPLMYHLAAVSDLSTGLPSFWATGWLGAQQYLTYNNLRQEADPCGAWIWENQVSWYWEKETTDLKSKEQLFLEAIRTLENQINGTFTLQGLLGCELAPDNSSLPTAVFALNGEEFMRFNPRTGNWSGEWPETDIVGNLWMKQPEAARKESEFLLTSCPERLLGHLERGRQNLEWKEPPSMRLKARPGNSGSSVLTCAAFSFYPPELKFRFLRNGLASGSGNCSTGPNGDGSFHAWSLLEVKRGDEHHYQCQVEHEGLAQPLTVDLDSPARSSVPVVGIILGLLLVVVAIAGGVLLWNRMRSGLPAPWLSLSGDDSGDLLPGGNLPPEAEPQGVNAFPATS
T4 sequence (b2m): T3 sequence (b2m)
The assay is described as follows: FACS blocking of IgG-Fc, IgG, pH 6.

Assay [14] deals with T1, soluble human FcRn (shFcRn). The assay is described as follows: Biacore, IgG immobilized, hFcRn flowed, pH 7.4.
Assay [15] addresses T3, soluble rat FcRn. In words: SPR 8500, rat FcRn pH 6 (Table 12D).
In assay [16] the target is T1, soluble human FcRn (shFcRn). In words: Biacore, hFcRn immobilized, IgG flowed, pH 7.4.
The target is the same in assay [17]. In words: Biacore, hFcRn immobilized, IgG flowed, pH 6.
Assay [18] has the same target. In words: Biacore, IgG immobilized, hFcRn flowed, pH 7.4. The source holds these as a separate data set.
The target is the same in assay [19]. The assay is described as follows: SPR 8500, IgG, pH 6.
The target in assay [20] is T3, soluble rat FcRn. In words: SPR 8500, IgG, pH 6.

Changes are numbered by the printed parent chain.

T1 sequence (P55899 24-297 limits assumed, chain 1 of 2): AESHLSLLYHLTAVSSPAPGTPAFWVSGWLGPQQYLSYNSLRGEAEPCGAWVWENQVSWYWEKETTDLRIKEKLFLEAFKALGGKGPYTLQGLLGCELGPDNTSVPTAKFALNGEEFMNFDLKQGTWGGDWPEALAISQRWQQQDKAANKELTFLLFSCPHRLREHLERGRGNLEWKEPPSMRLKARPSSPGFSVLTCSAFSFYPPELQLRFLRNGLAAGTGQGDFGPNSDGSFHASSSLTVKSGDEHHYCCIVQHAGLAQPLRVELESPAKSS
T1 sequence (P61769 21-119 limits assumed, chain 2 of 2): as the sequence (P61769 21-119 limits assumed, chain 2 of 2) above

B1: 3B3 mouse anti-human FcRn IgG (antibody)
chain 1: VKLQESGPELVKPGASVKISCKASGYAFSRSWMNWVKQRPGQGLEWIGRIHPGDGDTNYNGKFKGKATLTVAKSSSTAYMQLSSLTSVDSAVYFCANEGSPYFDYWGQGTTLTVSS
chain 2: DIQLTQSPTTVAASPGEKITITCSASSSISSNYLHWYQQKPGFSPKLLIYRTSNLASGVPARFSGSGSGTSYSLTIGTMEAEDVATYYCQQGSNIPLTFGAGTKLELKRADAAPTVSIFPPSSEQLTSGGASVVCFLNNFYPKDINVKWKIDGSERQNGVLNSWTDQDSKDSTYSMSSTLTLTKDEYERHNSYTCEATHKTSTSPIVKSFNKNE
Usually Kd stands for the concentration at which binding is half-saturated. Low readings indicate higher affinity, high ones lower affinity. What is called koff is a measure of how fast the partners let go of each other. Read a high koff as a short-lived complex. As usually defined, the kon is the rate constant with which the complex forms. A low value points to slow association. As usually defined, the IC50 is the point on the concentration scale where inhibition reaches its midpoint. High values mean lower potency, low ones higher potency. In the case of B1, the Kd in assay [1] is 0.593 nM; in assay [2] it was 0.409 nM; with soluble rat FcRn [4], 1.5 nM; in [5] it was 0.34 nM; in assay [6], 0.675 nM. In addition, the koff in assay [1] turned out to be 0.00176 s⁻¹; in assay [2] it was 0.00094 s⁻¹; with soluble rat FcRn [4] it was 0.00104 s⁻¹; in assay [5], 0.00131 s⁻¹; in assay [6], 0.0023 s⁻¹. Also, the kon was found to be 2.97e+06 M⁻¹ s⁻¹ in assay [1]; 2.3e+06 M⁻¹ s⁻¹ in assay [2]; 683000 M⁻¹ s⁻¹ with soluble rat FcRn [4]; 3.82e+06 M⁻¹ s⁻¹ in assay [5]; 3.41e+06 M⁻¹ s⁻¹ in assay [6]. The molecule also returned an IC50 in assay [3] of 9.7 nM.

B2: 532A-M0090-F11 IgG (antibody)
chain 1: not shown
chain 2: QSVLTQPASVSGSPGQSITISCTGTGSDVGSYNLVSWYQKYPGKAPKLIIYGDSQRPSGLSSRFSGSKSGNSASLTISGLQAEDEADYYCCSYAGSGIYVFGSGTKVTVLSQPKANPTVTLFPPSSEELQANKATLVCLISDFYPGAVTVAWKADGSPVKAGVETTKPSKQSNNKYAASSYLSLTPEQWKSHRSYSCQVTHEGSTVEKTVAPAECS
For the molecule B2, in assay [7], the “K off Fold improvement over DX2500” value amounted to 7 fold. In addition, the “K off Fold improvement over M90-F11” value in assay [7] amounted to 1 fold. In assay [7], the “KD Fold improvement over DX2500” value turned out to be 5 fold. In addition, in assay [7], the “KD Fold improvement over M90-F11” value was 1 fold. In addition, the IC50 stood at 0.43 nM in [8], 4.9 nM in [13] and 2.6 nM in assay [3]. Also, the Kd in assay [9] was found to be 10.8 nM; with soluble rat FcRn [10], 9.14 nM; in the assay with soluble rat FcRn [11], 9.14 nM; in assay [2] it was 2.44 nM; in assay [12] it was 10.3 nM; in [14] it was 20.5 nM. Besides, the Kd is 9.8 nM with soluble rat FcRn [15]; 0.772 nM in assay [16]; 0.118 nM in assay [17]; 18.6 nM in [18]; 10.8 nM in [6]; 2.44 nM in assay [19]. In addition, binding with soluble rat FcRn [20] was characterised by a dissociation constant (Kd) of 9.8 nM. The koff was 0.00114 s⁻¹ with soluble rat FcRn [11]; 0.00248 s⁻¹ in [2]; 0.00312 s⁻¹ in assay [12]; 0.00373 s⁻¹ in [14]; 0.00117 s⁻¹ with soluble rat FcRn [15]; 0.000702 s⁻¹ in [16]. In addition, the figures for the koff in assay [17], in [18] and in [6] were 0.000252 s⁻¹, 0.00299 s⁻¹ and 0.00173 s⁻¹, respectively. In addition, the kon in the assay with soluble rat FcRn [11] was 125000 M⁻¹ s⁻¹; in assay [2] it was 1.02e+06 M⁻¹ s⁻¹; in assay [12], 303000 M⁻¹ s⁻¹; in assay [14], 181000 M⁻¹ s⁻¹; in the assay with soluble rat FcRn [15], 119000 M⁻¹ s⁻¹; in assay [16] it was 909000 M⁻¹ s⁻¹. For the same molecule, the kon in assay [17] came out at 2.13e+06 M⁻¹ s⁻¹; in [18] it was 161000 M⁻¹ s⁻¹; in assay [6], 159000 M⁻¹ s⁻¹.

B3: 532A-M0090-F11 (germlined LC changes) IgG (antibody)
chain 1: not shown
chain 2: B2 chain 2 with V3A, K40Q, Y41H, I49M, L60V, S62N, S72T, S103T, S111G, A213T
B3 yielded an IC50 in assay [8] of 0.38 nM. The Kd in assay [12] was 29.9 nM; in assay [14] it was 35.2 nM; in assay [16], 0.779 nM; in assay [17] it was 0.172 nM. Moreover, the koff in assay [12] worked out at 0.0172 s⁻¹; in [14], 0.0152 s⁻¹; in [16], 0.000776 s⁻¹; in assay [17] it was 0.000764 s⁻¹. Further, the kon in assay [12] was 574000 M⁻¹ s⁻¹; in assay [14] it was 433000 M⁻¹ s⁻¹; in assay [16], 996000 M⁻¹ s⁻¹; in assay [17], 4.45e+06 M⁻¹ s⁻¹.

B4: DX-2500 (germlined LC & allotype HC changes) (antibody)
chain 1: not shown
chain 2: B2 chain 2 with V3A, K40Q, Y41H, I49M, L60V, S62N, S72T, S103T, S111G, A213T
For the molecule B4, in assay [7], the “K off Fold improvement over DX2500” value was determined as 1 fold, the “K off Fold improvement over M90-F11” value came out at 0.15 fold, the “KD Fold improvement over DX2500” value is 1 fold and the “KD Fold improvement over M90-F11” value turned out to be 0.21 fold. Also, in [8], the IC50 was 0.65 nM. In [12], this molecule came in with a Kd of 27.6 nM, a koff of 0.0177 s⁻¹ and a kon of 642000 M⁻¹ s⁻¹. In [16], this molecule had a Kd of 0.268 nM, a koff of 0.000338 s⁻¹ and a kon of 1.26e+06 M⁻¹ s⁻¹. Also, in [17], the Kd was 0.16 nM, the koff is 0.000336 s⁻¹ and the kon turned out to be 2.11e+06 M⁻¹ s⁻¹. Also, in assay [18], the equilibrium dissociation constant (Kd) was 87.9 nM, the koff was found to be 0.0197 s⁻¹ and the kon came out at 224000 M⁻¹ s⁻¹.

(Values after patent US20090324614A1 (published 2009).)
